B1: Ligand of Numb protein X 2 (Homo sapiens), Q8N448 (parent)
chain: MGTTSDEMVSVEQTSSSSLNPLCFECGQQHWTRENHLYNYQNEVDDDLVCHICLQPLLQPLDTPCGHTFCYKCLRNFLQEKDFCPLDRKRLHFKLCKKSSILVHKLLDKLLVLCPFSSVCKDVMQRCDLEAHLKNRCPGASHRRVALERRKTSRTQAEIENENGPTLLDPAGTLSPEADCLGTGAVPVERHLTSASLSTWSEEPGLDNPAFEESAGADTTQQPLSLPEGEITTIEIHRSNPYIQLGISIVGGNETPLINIVIQEVYRDGVIARDGRLLAGDQILQVNNYNISNVSHNYARAVLSQPCNTLHLTVLRERRFGNRAHNHSDSNSPREEIFQVALHKRDSGEQLGIKLVRRTDEPGVFILDLLEGGLAAQDGRLSSNDRVLAINGHDLKYGTPELAAQIIQASGERVNLTIARPGKPQPGNTIREAGNHSSSSQHHTPPPYYSRPSSHKDLTQCVTCQEKHITVKKEPHESLGMTVAGGRGSKSGELPIFVTSVPPHGCLARDGRIKRGDVLLNINGIDLTNLSHSEAVAMLKASAASPAVALKALEVQIVEEATQNAEEQPSTFSENEYDASWSPSWVMWLGLPSTLHSCHDIVLRRSYLGSWGFSIVGGYEENHTNQPFFIKTIVLGTPAYYDGRLKCGDMIVAVNGLSTVGMSHSALVPMLKEQRNKVTLTVICWPGSLV
partner: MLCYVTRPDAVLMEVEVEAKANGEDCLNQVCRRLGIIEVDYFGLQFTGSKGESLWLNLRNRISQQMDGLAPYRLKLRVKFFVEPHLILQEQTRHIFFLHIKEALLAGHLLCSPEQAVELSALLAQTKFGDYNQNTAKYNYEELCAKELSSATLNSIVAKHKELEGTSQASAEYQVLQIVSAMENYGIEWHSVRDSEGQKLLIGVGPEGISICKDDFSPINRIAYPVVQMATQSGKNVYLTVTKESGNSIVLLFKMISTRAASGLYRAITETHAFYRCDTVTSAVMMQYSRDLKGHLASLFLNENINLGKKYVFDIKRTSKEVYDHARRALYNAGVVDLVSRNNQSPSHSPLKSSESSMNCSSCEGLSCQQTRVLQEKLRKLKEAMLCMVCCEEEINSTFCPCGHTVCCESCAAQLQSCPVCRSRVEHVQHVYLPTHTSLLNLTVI
B2: Kinetochore protein NDC80 homolog (Homo sapiens), O14777 (parent)
chain: MKRSSVSSGGAGRLSMQELRSQDVNKQGLYTPQTKEKPTFGKLSINKPTSERKVSLFGKRTSGHGSRNSQLGIFSSSEKIKDPRPLNDKAFIQQCIRQLCEFLTENGYAHNVSMKSLQAPSVKDFLKIFTFLYGFLCPSYELPDTKFEEEVPRIFKDLGYPFALSKSSMYTVGAPHTWPHIVAALVWLIDCIKIHTAMKESSPLFDDGQPWGEETEDGIMHNKLFLDYTIKCYESFMSGADSFDEMNAELQSKLKDLFNVDAFKLESLEAKNRALNEQIARLEQEREKEPNRLESLRKLKASLQGDVQKYQAYMSNLESHSAILDQKLNGLNEEIARVELECETIKQENTRLQNIIDNQKYSVADIERINHERNELQQTINKLTKDLEAEQQKLWNEELKYARGKEAIETQLAEYHKLARKLKLIPKGAENSKGYDFEIKFNPEAGANCLVKYRAQVYVPLKELLNETEEEINKALNKKMGLEDTLEQLNAMITESKRSVRTLKEEVQKLDDLYQQKIKEAEEEDEKCASELESLEKHKHLLESTVNQGLSEAMNELDAVQREYQLVVQTTTEERRKVGNNLQRLLEMVATHVGSVEKHLEEQIAKVDREYEECMSEDLSENIKEIRDKYEKKATLIKSSEE
partner: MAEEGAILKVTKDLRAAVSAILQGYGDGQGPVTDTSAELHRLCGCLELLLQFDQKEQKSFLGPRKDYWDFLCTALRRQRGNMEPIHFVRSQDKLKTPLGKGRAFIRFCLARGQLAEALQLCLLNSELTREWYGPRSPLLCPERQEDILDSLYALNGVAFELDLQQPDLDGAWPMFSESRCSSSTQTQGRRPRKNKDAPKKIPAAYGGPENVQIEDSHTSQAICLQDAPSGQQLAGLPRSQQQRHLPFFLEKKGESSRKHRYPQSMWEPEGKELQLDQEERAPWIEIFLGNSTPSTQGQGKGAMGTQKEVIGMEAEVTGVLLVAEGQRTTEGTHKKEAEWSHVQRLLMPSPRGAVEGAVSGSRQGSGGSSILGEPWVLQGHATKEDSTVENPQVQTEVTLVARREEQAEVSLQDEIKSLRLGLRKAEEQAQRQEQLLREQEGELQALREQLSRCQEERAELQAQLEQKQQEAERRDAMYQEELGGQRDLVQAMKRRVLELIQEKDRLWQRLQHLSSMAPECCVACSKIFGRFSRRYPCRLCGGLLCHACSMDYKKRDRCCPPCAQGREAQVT
B3: Transmembrane protein 218 (Homo sapiens), A2RU14 (parent)
chain: MAGTVLGVGAGVFILALLWVAVLLLCVLLSRASGAARFSVIFLFFGAVIITSVLLLFPRAGEFPAPEVEVKIVDDFFIGRYVLLAFLSAIFLGGLFLVLIHYVLEPIYAKPLHSY
partner: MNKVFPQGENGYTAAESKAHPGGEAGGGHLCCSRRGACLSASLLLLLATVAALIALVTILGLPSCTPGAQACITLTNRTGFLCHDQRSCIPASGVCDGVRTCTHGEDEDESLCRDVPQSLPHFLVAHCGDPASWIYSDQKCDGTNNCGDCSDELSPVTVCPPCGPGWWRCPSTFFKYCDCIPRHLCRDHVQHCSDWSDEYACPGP
B4: Protein VAC14 homolog (Homo sapiens), Q08AM6 (parent)
chain: MNPEKDFAPLTPNIVRALNDKLYEKRKVAALEIEKLVREFVAQNNTVQIKHVIQTLSQEFALSQHPHSRKGGLIGLAACSIALGKDSGLYLKELIEPVLTCFNDADSRLRYYACEALYNIVKVARGAVLPHFNVLFDGLSKLAADPDPNVKSGSELLDRLLKDIVTESNKFDLVSFIPLLRERIYSNNQYARQFIISWILVLESVPDINLLDYLPEILDGLFQILGDNGKEIRKMCEVVLGEFLKEIKKNPSSVKFAEMANILVIHCQTTDDLIQLTAMCWMREFIQLAGRVMLPYSSGILTAVLPCLAYDDRKKSIKEVANVCNQSLMKLVTPEDDELDELRPGQRQAEPTPDDALPKQEGTASGGPDGSCDSSFSSGISVFTAASTERAPVTLHLDGIVQVLNCHLSDTAIGMMTRIAVLKWLYHLYIKTPRKMFRHTDSLFPILLQTLSDESDEVILKDLEVLAEIASSPAGQTDDPGPLDGPDLQASHSELQVPTPGRAGLLNTSGTKGLECSPSTPTMNSYFYKFMINLLKRFSSERKLLEVRGPFIIRQLCLLLNAENIFHSMADILLREEDLKFASTMVHALNTILLTSTELFQLRNQLKDLKTLESQNLFCCLYRSWCHNPVTTVSLCFLTQNYRHAYDLIQKFGDLEVTVDFLAEVDKLVQLIECPIFTYLRLQLLDVKNNPYLIKALYGLLMLLPQSSAFQLLSHRLQCVPNPELLQTEDSLKAAPKSQKADSPSIDYAELLQHFEKVQNKHLEVRHQRSGRGDHLDRRVVL
partner: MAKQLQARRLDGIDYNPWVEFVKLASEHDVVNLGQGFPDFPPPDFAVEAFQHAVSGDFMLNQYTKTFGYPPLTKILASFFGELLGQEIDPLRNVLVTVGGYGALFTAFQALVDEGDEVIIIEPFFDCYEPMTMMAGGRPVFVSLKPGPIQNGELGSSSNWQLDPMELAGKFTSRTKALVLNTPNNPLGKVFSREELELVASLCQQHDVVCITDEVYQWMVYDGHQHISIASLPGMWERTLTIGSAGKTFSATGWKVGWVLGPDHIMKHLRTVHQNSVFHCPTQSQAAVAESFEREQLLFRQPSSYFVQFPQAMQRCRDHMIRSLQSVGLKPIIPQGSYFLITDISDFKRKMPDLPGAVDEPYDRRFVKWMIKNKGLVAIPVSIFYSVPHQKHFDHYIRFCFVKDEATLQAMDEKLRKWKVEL
B5: Alpha-ketoglutarate-dependent dioxygenase alkB homolog 3 (Homo sapiens), Q96Q83 (parent)
chain: MEEKRRRARVQGAWAAPVKSQAIAQPATTAKSHLHQKPGQTWKNKEHHLSDREFVFKEPQQVVRRAPEPRVIDREGVYEISLSPTGVSRVCLYPGFVDVKEADWILEQLCQDVPWKQRTGIREDITYQQPRLTAWYGELPYTYSRITMEPNPHWHPVLRTLKNRIEENTGHTFNSLLCNLYRNEKDSVDWHSDDEPSLGRCPIIASLSFGATRTFEMRKKPPPEENGDYTYVERVKIPLDHGTLLIMEGATQADWQHRVPKEYHSREPRVNLTFRTVYPDPRGAPW
B6: Forkhead box protein S1 (Homo sapiens), O43638 (parent)
chain: MQQQPLPGPGAPTTEPTKPPYSYIALIAMAIQSSPGQRATLSGIYRYIMGRFAFYRHNRPGWQNSIRHNLSLNECFVKVPRDDRKPGKGSYWTLDPDCHDMFEHGSFLRRRRRFTRQTGAEGTRGPAKARRGPLRATSQDPGVPNATTGRQCSFPPELPDPKGLSFGGLVGAMPASMCPATTDGRPRPPMEPKEISTPKPACPGELPVATSSSSCPAFGFPAGFSEAESFNKAPTPVLSPESGIGSSYQCRLQALNFCMGADPGLEHLLASAAPSPAPPTPPGSLRAPLPLPTDHKEPWVAGGFPVQGGSGYPLGLTPCLYRTPGMFFFE

Variants of: B1
Details: with mylip_human MYLIP

| effect of a mutation on the interaction | Variant |
| --- | --- |
| with no effect | P669A |

Variants of: B2
Details: with rufy4_human RUFY4, Q6ZNE9

| effect of a mutation on the interaction | Variant |
| --- | --- |
| with no effect | K288E |

Variants of: B3
Details: with lrad1_human LDLRAD1, Q5T700

| effect of a mutation on the interaction | Variant |
| --- | --- |
| with no effect | P66S |

Variants of: B4
Details: with kat1_human KYAT1, Q16773

| effect of a mutation on the interaction | Variant |
| --- | --- |
| with no effect | A127S |

Variants of: B5
Details: with ikzf1_human IKZF1, Q13422
Chain of ikzf1_human IKZF1, Q13422 (Q13422 whole entry): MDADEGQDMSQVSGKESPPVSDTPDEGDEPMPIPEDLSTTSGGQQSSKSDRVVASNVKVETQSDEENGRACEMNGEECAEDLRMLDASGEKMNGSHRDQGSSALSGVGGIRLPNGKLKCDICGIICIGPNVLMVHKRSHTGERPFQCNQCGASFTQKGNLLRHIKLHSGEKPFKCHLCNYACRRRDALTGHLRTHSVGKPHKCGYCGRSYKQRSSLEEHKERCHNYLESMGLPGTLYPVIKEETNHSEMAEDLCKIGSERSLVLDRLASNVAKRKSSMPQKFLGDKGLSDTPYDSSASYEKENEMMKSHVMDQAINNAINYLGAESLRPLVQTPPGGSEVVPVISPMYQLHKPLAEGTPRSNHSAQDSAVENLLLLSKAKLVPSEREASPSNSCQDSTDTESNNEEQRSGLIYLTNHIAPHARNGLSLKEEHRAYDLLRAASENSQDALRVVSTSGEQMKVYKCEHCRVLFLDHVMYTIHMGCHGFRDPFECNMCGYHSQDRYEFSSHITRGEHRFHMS

| effect of a mutation on the interaction | Variant |
| --- | --- |
| with no effect | R64H |

Variants of: B6
Details: with rbpms_human RBPMS

| effect of a mutation on the interaction | Variant |
| --- | --- |
| with no effect | T147M |
